For assay [1], the target named is rat brain synaptosomes (voltage-gated sodium channel, receptor site 3) (rat).
Assay [2] shares this target. The assay is described as follows: cell-based or functional assay.

No end group written: not given here.

As a reminder, the EC50 is the midpoint of the concentration-response curve. Read a high EC50 as a less potent agent.

Turning to uctoxin (peptide), the EC50 in assay [1] is 60 nM. For the same molecule, the enhancement of [3H] BTX binding to rat brain synaptosomes in assay [2] was 2 fold.

B1: birtoxin (peptide)
chain: ADVPGNYPLDKDGNTYKCFLLGGNEECLNVCKLHGVQYGYCYASKCWCEYLEDDKDVS
modifications: also: three disulfide bridges, pairings not given here
On to B1, for which, in assay [1], the concentration giving a half-maximal response (EC50) was 5 nM. In assay [2], the enhancement of [3H] BTX binding to rat brain synaptosomes came to 4.32 fold.

These data come from US20030113892A1.
